Assay: inhibition ELISA, anti-naltrexone monoclonal antibodies against key opioids (FIG. 8)
Assay type: binding
Details: free drug 20 μg/mL, plates coated with ovalbumin conjugate
Excerpt: (§1) Mice with good anti-drug antibody titers and binding to free drug in the ELISA inhibition assays were selected to proceed with generation of monoclonal antibodies, in a similar manner to that described in U.S. Pat. No. 9,815,907 (issued to Sharma et al. on Nov. 14, 2017). In particular, mice with highest titers and best specificity were boosted three days prior to fusion. On the day of fusion, spleen cells were harvested from these mice and were fused with myeloma cell line P3X63Ag8.653 using PEG-assisted fusion protocols. After about ten days, hybridoma supernatants were screened for anti-naloxone and anti-naltrexone antibodies using a plate ELISA (direct binding and inhibition ELISA for specificity). Positive clones were further expanded and sub-cloned, and supernatants were purified using a Protein A SEPHAROSE® (GE Healthcare, Chicago, IL) column. Purified antibody samples were tested using ELISA for binding to the immunogen (i.e., a conjugate of drug-carrier protein) and to free opioids.
(§2) Antibody solution (Immune mouse bleeds or hybridoma clones supernatant or purified antibody) was screened using an inhibition ELISA procedure according to the following protocol. […] Plate coating was performed for 1 hour or more at room temperature or overnight at about 2° C. to 8° C. The plates were then flicked dry and blocked with 200 μL per well of blocking buffer solution (0.5% Casein solution in PBS containing 0.05% TWEEN® 20 surfactant (Croda International PLC, Snaith, United Kingdom). Plate blocking was performed by incubation for 30 minutes or more at room temperature with plate shaking. The plates were washed using a plate washer (BioTek®, Winooski, VT) with plate stacker with the washing buffer being MILLIQ® water (Millipore Corporation, Billerica, MA) containing 0.05% TWEEN® 20. The monoclonal antibody to be screened was then added to each well along with free drug as follows: 25 μL per well of appropriately diluted culture supernatant (or antibody solution) and added 25 μL of 20 μg/mL of free drug. Incubation was performed for about 1 hour at room temperature with plate shaking. The plate was washed. An enzyme conjugate (goat anti-mouse IgG coupled to HRP diluted in blocking buffer diluted to 1:3000) was added at 50 μL per well. Incubation was performed for about 1 hour at room temperature with shaking. The plate was then washed, and a chromogenic solution (TMB from Moss Substrates, Pasadena MD) was added at a volume of 100 μL per well. If a desired antibody was present in the hybridoma supernatant, then a decrease in optical density was observed compared to the well containing no free drug. The plates were read at 650 nm wavelength using an ELISA plate reader (Molecular Devices, San Jose, CA). Note: appropriate dilution of antibody solution was determined by performing a titration ELISA. The antibody dilution was chosen where around 1.0 optical density was observed.

| Molecule | specificity for naltrexone over the other key opioids tested in the inhibition ELISA assay |
| --- | --- |
| 180C 1F8: anti-naltrexone monoclonal antibody generated using naltrexone-3-Val-mcKLH; heavy chain SEQ ID NO:61, light chain SEQ ID NO:65 (antibody, Amino Acid sequence of heavy chain of monoclonal antibody 180C 1F8; Amino Acid sequence of light chain of monoclonal antibody 180C 1F8) heavy: MEWSWIFLFFLSVTTGVHSQVQLQQSDAELVKPGTSVKISCKASGFTFTDHAIHWVKQRPEQGLEWIGYISPGNGDIKYNEKFKGKATLTADKSSSTAYMQLNSLTSEDSAVYFCDYYNGRVDYWGQTTLTVSS light: MEFHTQVFVFVFLWLSGVDGDIVMTQSQKFMTTSVGDRVSITCKASQNVGSAVAWYQQKPGQSPKLLIYSASNRFTGVPDRFTGSGSRTDFTLTISNMQSDDLADYFCHQYRSYPYTFGGGTKLEIK | good specificity for naltrexone |
| 180B 13F7: anti-naltrexone monoclonal antibody generated using naltrexone-3-Val-mcKLH; heavy chain SEQ ID NO:41, light chain SEQ ID NO:45 (antibody, Amino Acid sequence of heavy chain of monoclonal antibody 180B 13F7; Amino Acid sequence of light chain of monoclonal antibody 180B 13F7) heavy: MRVLILVYLLTALPGILSDIQLQESGPGLVKPSQTVSLTCTVTGYSITYVNHWWNWIRQVSGNKLEWIGYISSSGSIDSNPSLKSRIAITRDTSKNQLFLQLKSVTTEDVGTYYCVSEDSSGYHYWGGTTLTVSS light: MKLPVRLLVLMFWIPASSSDVVMTQTPLSLPVSLGDQASISCRSSQSLVFSNGKTYFHWYLQKPGQSPKLLIYRVSNRFSGVPDRFSGSGSGTDFTLKISRVEAEDLGVYFCSQSTHVPWTFGGGTKLEIK | good specificity for naltrexone |
| 180C 7G8: anti-naltrexone monoclonal antibody generated using naltrexone-3-Val-mcKLH; heavy chain SEQ ID NO:81, light chain SEQ ID NO:85 (antibody, V domains shown, Amino acid sequence of heavy chain of monoclonal antibody 180C 7G8; Amino acid sequence of light chain of monoclonal antibody 180C 7G8) VH: MYLGLNCVIIVFLLKGVQSEVKLEESGGGLVQPGGSVKLSCAVFGFTFSDPWMDWVRQSPEKGLEWVAEIRNKAYNHATYYAESVKGRFTISRDDSNSRVSLQMNNLRAEDTGVYYCTAGDSSHSYWQGTLVTVSA VL: MEFQTQVFVFVLLWLSGVDGDIVMTQSQKFMSTSVGDRVSIICKASQNVRTAVAWYQQKPGQSPKTLIYLASNRHTGVPDRFTGSGSGTDFTLTISNVQAEDLADYFCLQHWNYPLTFGGGTKLEIK | good specificity for naltrexone |
| 180C 8A10: anti-naltrexone monoclonal antibody generated using naltrexone-3-Val-mcKLH; heavy chain SEQ ID NO:101, light chain SEQ ID NO:105 (antibody, Amino acid sequence of heavy chain of monoclonal antibody 180C 8A10; Amino acid sequence of light chain of monoclonal antibody 180C 8A10) heavy: MGWSYIFLFLVATVTDVHSQVQLQQPGAELVKPGASVKLSCKASGYTFTNYWINWVKQRPGQGLEWLGEINPSNSNTKYNEKFKSRATLTADKSSSTAYMQLHSLTSEDSAVYYCNYYDGGHDSWGQTTLTVSS light: MEFHTQVFVFVFLWLSGVDGDIVMTQSQKFMSTTLGDRVSIICKASQNVGTAVAWYQQKPGQSPKLLIYSTSNRYTGVPDRFTGSGSGTDFSLTISSVQSEDLADYFCHQYSSYLYTFGGGTRLEIK | good specificity for naltrexone |
| 180C 9D5: anti-naltrexone monoclonal antibody generated using naltrexone-3-Val-mcKLH; heavy chain SEQ ID NO:121, light chain SEQ ID NO:125 (antibody, Amino acid sequence for heavy chain of monoclonal antibody 180C 9D5; Amino acid sequence for light chain of monoclonal antibody 180C 9D5) heavy: MGWNYIFLFLIATVTDVHSQVRLQQPGTDLVKPGASVKLSCRASGFTFTNYWMNWVKQRPGQGLEWIGEINTNGGTKYNENFKNKATLTVDQSSSTAYIQLSGLTSEDSAVYFCNYFDGNYDYWGQGTLTVSS light: MEFHTQVFVFVFLWLSGVDGDIVMTQSQKFMSTPVGDRVSLTCRASQNVGTAVAWYQQKPGQPPKLLIYSTSNRFTGVPSRFTGSGSGTDFTLTITNMQSEDLADYFCHQYSSYPYTFGGGTKLEIK | good specificity for naltrexone |
| 180C 9G8: anti-naltrexone monoclonal antibody generated using naltrexone-3-Val-mcKLH; heavy chain SEQ ID NO:141, light chain SEQ ID NO:145 (antibody, V domains shown, Amino acid sequence of heavy chain of monoclonal antibody 180C 9G8; Amino acid sequence of light chain of monoclonal antibody 180C 9G8) VH: MYLGLNCVIIVFLLKGVQSEVKLEESGGGLVQPGGSMKLSCAASGFTFSDAWMDWVRQSPEKGLEWVAEIRNKANNHATYYAESVKGRFTISRDDSNSRMFLQMDSLRAEDTGIYYCIGGIPRYFDVGAGTTVTVSS VL: MESQTQVFVYMLLWLSGVDGDIVMTQSQKFMSTSVGDRVSITCKASQNVRTYVAWYQQKPGQSPKALLYSASYRYSGVPDRFIGSGSGTQFTLTISDVQSEDLAEYFCHQYNSYPLTFGGGTKLEIQ | good specificity for naltrexone |

Assay: inhibition ELISA, anti-naloxone monoclonal antibodies against key opioids (FIG. 7)
Assay type: binding
Details: free drug 20 μg/mL, plates coated with ovalbumin conjugate
Excerpt: as §1, §2

| Molecule | specificity for naloxone over the other key opioids tested in the inhibition ELISA assay |
| --- | --- |
| 179B 9G1.1: anti-naloxone monoclonal antibody generated using naloxone-3-Val-mcKLH; heavy chain SEQ ID NO:161, light chain SEQ ID NO:165 (antibody, Amino acid sequence of heavy chain of monoclonal antibody 179B 9G1.1; Amino acid sequence of light chain of monoclonal antibody 179B 9G1.1) heavy: MEWPCIFLFLLSVTEGVHSQVQLQQSGPELVKPGASVMISCKVFGDIFSSSWMNWVKQRPGKGLEWIGWICPGNGATKYNGKFKGKATLTADKSSGTGYMQLSSLTSEDSAVYFCELGRRDGYLDVWAGTTVTVSS light: MESQTQVFVYMLLWLSGVDGDIVMTQSQKFIFTSEGDRVSVTCKASQNVGTNIAWYQQKPGQSPKALIYSASNRYSGVPDRFTGSGSGTDFTLTFSNVQSEDLAEYFCLQYNNYPWTFGGGTKLEIK | good specificity for naloxone |
| 179B 9E12: anti-naloxone monoclonal antibody generated using naloxone-3-Val-mcKLH; heavy chain SEQ ID NO:181, light chain SEQ ID NO:185 (antibody, V domains shown, Amino acid sequence of heavy chain of monoclonal antibody 179B 9E12; Amino acid sequence of light chain of monoclonal antibody 179B 9E12) VH: MGWSWIFLFLLSGTAGVHCQIQLQQSGPELVKPGASVKISCKASDYSFTNSYINWVKQRPGQGLEWIGWIYPGSTNTKYNEKFWDKATLTVDTSSNTAYMELRGLTSEDSAVYFCEMGTHYSYDVMDWGQGTSVTVSS VL: MEFQTQVFVFVLLWLSGVDGDIVMTPSQKFMSTSVGDRVSITCKASQNVRTSVGWYQQKPGQSPKPLIYATSNRHTGVPDRFTGSGSGTDFSLTITNVQSEDQADYFCLQHWNYPWTFGGGTKLEIK | good specificity for naloxone |
